{"source": "the DeepSol protein solubility set", "data": [{"experiment": "soluble on expression in E. coli; label from the status in PepcDB or PDB records", "values": [{"sequence": "MGSDKIHHHHHHMLKSGGSFFYQVAQGYAMTKQPKTIQEMMTLLVEERGLDITGFSDFSTVLLDCNYYRLSGYFRAFQIDPSHGNNRFRNGTHIKDFMIPYLMDEQLRLLILRGTSSLEQTLRAHFAYYLAQNGGAYSYTELSSYKTIKYSDGTEAREVLIENIHKWLERSSEVCIRHYRNNNEPIPIWAAVEAMPFDTLSKMISLHTNTTAVDELNQSLSLGKNRQRAAQIIHSMVYLRNICSHHCRLWNREIVLPPPVLDATAERYGSYAYEDRSVWKSLIVLMDLIDGIKKNSTYSSMLIKQAESNDNYFWGLCHPKRWH", "soluble on expression in E. coli": "not soluble"}, {"sequence": "MVLDRQHLGVTKSRCIVWGVAFLSDGTVISVDSVGKVQLWDSATGTLVKSHLVANADVQSIAVADQEDSFVVGTAEGTVFHFQLVSMTSNSSEKQWVRTKPFQHHTHDVRAVAHSPTALISGGTDTHLVIRPLMERVEVKNYDAALRKITFPHRRLISCSKRRQLLLFQFAHHLELWRLGSTSATGKNGDTLPLSKNADHLLHLKTKGPENIICSCVSPCGSWIAYSTASRFFLYRLKYERDNISLQRVSKLPSFLRSALHILFSEDSTKLLVASNQGSLHIVHLSEGSFKHLHTFQPQSGTVEAMCLLAVSPDGNWLAASGTSAGVHVYDLHHLKLHCTVPAYNFPVTALAIAPNTNNLVIAHSDQQVFEFSIPEKQYTEWSRSLQKQGFHQLWLQRDTPITHISFHPKRPMHILLHDAYMFCIIDKSLPLPNEKTVLYNPLPPKNESDVFLRRTTHGFKMSKIYKPLLFMDLLDERTLVAVERPLDDIIAQLPPPIKKKKFGT", "soluble on expression in E. coli": "not soluble"}, {"sequence": "MSLSEAGHKFLAKLGKKRLRPGGKRATDWLIAEGGFSKEKRILEVACNRGTTAIELAQRFGCKITAVDMDAQALEVAKKSAGTAGVAHLISFERANAMKLPYQDASFDIVINEAMLTMQADQAKKKCVMEYLRVLKPGGLLLTHDVLLKEAKESIRQELSQAIHVNVGPLTQDGWEQVMIESGYCDVKALTGEMTLMKLSGMIYDEGLLGTLKICVNACKKENRKQFLTMYKMFAKNKQKLGFIAMASYKSSKREGHHHHHH", "soluble on expression in E. coli": "not soluble"}, {"sequence": "MAHHHHHHMSPVLVPTACEDWSLNIDDESAKRFWWNNTYSITLWEETLNIEQQAEKITDGDVWSKFIDLQLRCAFKICSICHSPEGNADMKICCYCGNTVHENCSEPAAPEQIMWKPANLAYVEHMRACFQCQAVNYKEPL", "soluble on expression in E. coli": "not soluble"}, {"sequence": "MGTIADIVVTEQNAERFWIVVHRDGAPSLRLTVDQDVLLQFRLKKGMEISDDLLQHIVYADEVKKAYQQALYFLAHRMRSEHEVAAHLRKKGAPDSVIDEVLKKLRAERYVDDEAFAAAYVRTQKKTAAKGPLLIRAELERLGVLGCLIEQSLAEYTLDEQMAIARSLYEKAKKQRLAESARAFLERVRQQLMRKGFPHEVIAAVLADGGAHTEQEEREALSVQAEKAHRRYAHHPRPLYEQKMRQALYRKGFALDLINEWLRMHGNDE", "soluble on expression in E. coli": "not soluble"}, {"sequence": "MGSDKIHHHHHHMKLDLVRFFQACNPSKTLVVSKPEDRQYYIDFSKVRGAKIIEELGRTITRLSPEQPTCQLFTGHIGCGKSTELLRLKAELEQQGFHVVYFESSQSLDMADIDVTDILLAVAREVSQSLEAIKINLKPGYFKNLFTEISEFLQTPLDIGVEAELSVGIAKITAKTKDSPKLRGQLRQYLEPRTNGILESINKELLKPAREKLKQEGKKGLVVIIDNLDRVDNSLKPSGYYQPEYLFVERGEQLNQLNCHVVYTIPLVLIFSNALGRLINRFGIDPKVLPMVPVQVQDGSQFLQGITLLQQMVMARAFPGVSWEQSRHLITEVFDSLDTLERLCRVSGGHLRNLLMLLFRCLQQEDPPLSRECVDRVIKQRRNELTLAITPDEWELLHEVAQEKNLRGHERYDLLLRSMFVFEYRDEDGSWFDINPILAEAKEFRL", "soluble on expression in E. coli": "not soluble"}, {"sequence": "GPGSMNPATKDVASAEEESPVVCTAKQYIFDLHSYAWKESDCLIRIPRPHKGMGHGGMRVCYAVEDVDEEGAGTPMVAKMFRRNISNVVEKDYFNEGAAQCMCEEFANNFNRIHLTNIRKPNISFLQCYVVRIPRDSIPAASQRKRTGFFSYKTQDTGEVMFVMEPMLSGKFTKYNSNYGETYREDKKAALTSSEARRRTEIFEAAETFSHFTLVESGGSMLVCDLQGVNDFFTDPQIHTEDGKGLGMGNMGQEGIDKWIEKHECNDICRALGLQPLLGAVPSSTACAREENMYLGLRAQLQSQNPVRLRDLVPLTKPLEEMTEAERIEYALKVSRLTD", "soluble on expression in E. coli": "soluble"}, {"sequence": "SCTLGRLVSPGPCPRPYLVITEQPKQRGMRFRYECEGRSAGSILGESSTEASKTQPAIELRDCGGLREVEVTACLVWKDWPHRVHPHSLVGKDCTDGVCRVRLRPHVSPRHSFNNLGIQCVRKKEIEAAIERKIQLGIDPYNAGSLKNHQEVDMNVVRICFQASYRDQQGHLHRMDPILSEPVYDKKSTNTSELRICRINKESGPCTGGEELYLLCDKVQKEDISVVFSTASWEGRADFSQADVHRQIAIVFKTPPYEDLEISEPVTVNVFLQRLTDGVCSEPLPFTYLPRDHDSY", "soluble on expression in E. coli": "soluble"}, {"sequence": "MAHHHHHHMVAKRKEFELTKVIQEATFLTFKGLDTHDVYNCCVPFKISGTYHIFGRVERRSEWVNSHVRLFRKTGHDEYTLVEHAMQYQLEDPFLVKINNEALFGGVRVTKDHGKVSGYVCDFYRGKIDDLHYFTSGPQNMKDIRLVVLADGKIGVFSHHKTSNTCITGFTIIDSLDDLCSQVIDSAKPIDHTLFGDAWGGVNQPYLLSTGKIGCISHHGYLDTDAHGEVINVYCITSFVYQPSANKCYDYKILGTKNCFPDYPAKALKLIDCAFVSGIVMREDGKCDLYSGVGDTREGRMVIDYPFEGHGTIADDLDF", "soluble on expression in E. coli": "not soluble"}, {"sequence": "MGSDKIHHHHHHLQVSEMEMLITLSEELNMRRAAERLFVSQPALSQRLVAIERRWATKLFIRSSRGLSITPQGEKVIGLAKEMNRKELELKSELTAEEGAVYGTLRIAVASIMGQYWLPRVLKRFVERYPHVRVQLVTGWSSEMMRHMLEEHFHIGIIRGNPDWKGVKERLFSDPLYLVDSELTSLEQLRKTERPFIQFKSDSTYYQEILEWWQDRFSSPPARTLVVDQIETCKQMALHGIGFAILPESTIHEASEVMQIPLKTSSGKILKRDTWILSTESMLELKQVQAFWDIVKEEGGSQSDGIRN", "soluble on expression in E. coli": "not soluble"}, {"sequence": "RIEEVKERFVNLNRLFQELVGDFQAKSDQLVSVIQDMEKISENIMEELKKSGTNVDQIVERVKEASSQIGETLENIRSIEKLIQNIMRIARETNILALNATIEAARAGEAGKGFMIVANEVQNLSNETNEVTKQIVEKAREILESSQRSLENLEFMANLFETVGKTLQNMVRFMENIVKLLQEVRNSLDTSKESLSEKSAEIDSATKVLEETA", "soluble on expression in E. coli": "soluble"}, {"sequence": "MENVCFQQRLRDLETRVRKWKFLKLGLTEVRLRPRDRRSTSVDQKHKECSSTSSSPQHQRPNNIGYLTSPMERKFTPLSMKPSPSRRDTEKDALEYEFLEGYKKSGTLEIDGEKQVVDPNEIHIISLLGSGSCGVVESATVRSKLMAVKTMYKNDNKENLKRILRDVRIMSMCNSPFIVTSYGYFMFDSSVKICMQIMSACCEKLLRRIYHSKLDFFPEFVAGHIVYSAISALDYLKEKHSIIHRDIKPSNILFDDSGNVKLCDFGISGFMTDSMAHSKSAGCPPYMAPERLTIETNSKYDVRSDVWSLGITVYQLVTGLYPFPLNDMEFTTLTIIANLNLPSPSLREETKRSFSPLFIEFLDLCLRKDVRERPEYRQLMKHDFYLDYDPASGSAYKFKAINGKCNQVADWFVDVIRLSKTEDELKSIPNTPCVN", "soluble on expression in E. coli": "not soluble"}, {"sequence": "MGRPRVARLDRERIAEAALELVDRDGDFRMPDLARHLNVQVSSIYHHAKGRAAVVELVRHRVVREIDGSAFERLPWDEAFSEWARSYRAAFSRHPTAIRLLATETVRDPGSLSVYHSAAAGLRGAGFPDDHIMAVITAAENFLLGAALDAAAPEVMIEADSTTTDDALTRALAAAPRGPERAEQAFELGLAALLAGFHHLLQECGAVQR", "soluble on expression in E. coli": "soluble"}, {"sequence": "MKLNIKDVVLNYNIIGEGEPIIILHGYSVDHTIMFGCMENLFSDESRYKRIYVDLPGMGKSTSSDSIKTSDNMLDIILEFIMKVTKGENFLLVGESYGGYLSRGVVYKIREKVNGLFLICPAIIPDFNKRTVPEHVILAYDEKLMSKLNKEEAEEFSSMSVVQNEKIYLRFKEEVMSGIKLGNQDFLERLQREGYGFSFDVDKLPQKFDKPTLMLLGKQDASVGYKDAWNILDNYPRATFAVLDMAGHNLQIEQEDIFNLLGKEWISRTYREKDY", "soluble on expression in E. coli": "not soluble"}, {"sequence": "NARTVVMVQFRDIEQETSMRRDLTRTEADLTRTEARLAAFLRNMAEGILVLDDDSRITYASEAASELLKVPVASLVGERFTEFCRAGQSRESVRRALELTTADGGSQSLRYEVELTPGERRWHAGSCQHIGIE", "soluble on expression in E. coli": "not soluble"}, {"sequence": "MKRLLLTLTFPLFFVGCASQNPTHMAFSPQVPDISQQTSRPVQISLDTIDSRNAEYVARFMEEGTKTRLVGPSEPPKLLLDEVFRNGFTQAGYQIDPSATNSIQVQLEELQMDVTKKTFGYEAKHSVRIAVQARNSSQELVKRYKAKGVLKGPLTPDFATLEMDMNKLLGQLTGEILNDPELNQFLQK", "soluble on expression in E. coli": "soluble"}, {"sequence": "MGSDKIHHHHHHMTGRNILTESESDRGRVLFSPAFRRLQQKAQVFSMEPNAAVRSRLTHSFEVSQIGRYIADLLSEKLGIATEQQAGALVNFVETACLMHDIGNPPFGHFGEEAIKKWFEDNGERCLRLSIGRPKPSDGACPDQAKVRDALVDFADFDGNPQGLRIVARLQWNTDEFGLNLTKTSLASFMKYIRMAGGEKSGIFTKKAGYFTTERDLVESVWREFGYELPQRFPLAYIMEAADDIAYCISDLEDSFEKDIVRPDDALSYVEEQYERHEFEDGDPKHVDIRRAIRQMRAKERESGGEFTFTDFRTSLNNVIVNYVADRYVENHSKILDGTLESLIPGNEPPGAILNAIRKFCREHVYTHESVQRVELAGYNAIRGLLEQCSSLLCISAEGFRAARANEKQDAKGQALVLEPKLLRLFPEKYIKVYDYHLKQAGGDEADPFLEWTYRAHLIVDFISGMTDDFAMTTYRTLAGMRL", "soluble on expression in E. coli": "not soluble"}, {"sequence": "MELQDLELQLEERLLGLEEQLRAVRMPSPFRSSALMGMCGSRSTDNLSCPSPLNVMEPVTELMQEQSYLKSELGLGLGEMGFEIPPGESSESVFSKQRSESSSICSGPSHANRRTGVPSTASVGKSKTPLVARKKVFRASVALTPTAPSRTGSVQTPPDLESSEEVDAAEGAPEVVGPKSESEVEEGHGKLPSMPAAEEMHKNVEQDELQQVIREIKESIVGEIRREIVSGLLAAVSSSKASNSKQDYHLEHHHHHH", "soluble on expression in E. coli": "not soluble"}, {"sequence": "MKIDILTLFPDMFTGVFGSSILKKAQEKEAVELRVVNFRDYTTSKHNSVDDYPYGGGAGMVLTPQPIFDAVEDLTKETERKPRVVLMCPQGERFTQKKAEELAEEEHLIFVCGHYEGYDERIREHLVTDEISIGDYVLTGGELASMVITDSVVRLLPGVLGNHASQVEDSFSTGLLEHPHYTRPADFRGMKVPDVLMSGNHKNIDEWRHKESLRRTYTRRPDLLEERELSKQEKKWLEQIKEGK", "soluble on expression in E. coli": "not soluble"}, {"sequence": "MVVSKMNKDAQMRAAINQKLIETGERERLKELLRAKLIECGWKDQLKAHCKEVIKEKGLEHVTVDDLVAEITPKGRALVPDSVKKELLQRIRTFLAQHASL", "soluble on expression in E. coli": "soluble"}, {"sequence": "ISNKHFEQAIERVVAGMEKKTQVLQKEEKKTVAYHEAGHAIAGWFLQHADPLLKVSIIPRGKGLGYAQYLPKEQYLYSKDQLLDRMCMTLGGRVAEEIFFGRITTGAQDDLQKVTQMAYSQVVKFGMSEKVGPLSFETPAPGEMAFDKPYSEATAQLIDQEQFADLPEILDSGNLPICRKFSIPAICRFAGNFQFRQFANLPNCRKFSIPTICQFAGNFNFQKIADLPEKIVRDLVMNALRRTRDLLLEKRSDIERVALRLLEKEILNREDMIEL", "soluble on expression in E. coli": "not soluble"}]}]}
